# According to patent US7854918B2, “Composition for medical use having improved water-solubility of peptide and metal-labeling efficiency and preparation for medical use comprising metal-labeled peptide” (Nihon Medi-Physics Co., Ltd., priority 2004, dated 2010):
# “Also recorded” adds a separate entry of the source. Square brackets hold non-standard residues; d marks the D form. Ends that are not written are not given here. * marks the point of attachment. Nle = CCCC[C@H](N)C(=O)O; For = O=C*
# Key:
# Assay type in all cases: physicochemical
# [1] = External observation of peptide sample solutions (presence or absence of white turbidity)
# Protocol: (§1) Peptide 1, Peptide 2, and Peptide 3 (100 μg each) were separately added to 410 mM arginine solutions (pH 11) to adjust each total amount to 700 μL. Molarities in these solutions are 94 μM (Peptide 1), 99 μM (Peptide 2), and 161 μM (Peptide 3). […] Then, 200 μL each of the sample solutions was filtered with a filter Millex (registered trademark)-GV (trade name, manufactured by Nihon Millipore) with a pore size of 0.22 μm. The sample solutions before filtration and the sample solutions after filtration were respectively analyzed by reverse-phase HPLC. Peak area percentages were determined from the peak area values of the peptides before and after filtration and used as elution rates. HPLC analytical conditions are shown below.
# (§2) For a comparative example, Peptide 1, Peptide 2, and Peptide 3 were separately dissolved in each of water and dimethylsulfoxide (DMSO) to prepare samples having a peptide concentration of 94 μM, 99 μM, or 161 μM, which were studied in the same way as above.
# (§3) Arginine, lysine, and histidine were separately dissolved in water to prepare 410 mM arginine solution, 489 mM lysine solution, and 90 mM histidine solution. An aqueous solution of sodium hydroxide and hydrochloric acid were added to these solutions to adjust the pH of the aqueous solutions of lysine and histidine to 8, 9, 10, and 11, and the pH of the aqueous solution of arginine to 8, 8.5, 9, 9.5, 10, and 11. Subsequently, Peptide 1 was added to these aqueous solutions to prepare 94 μM Peptide 1 solutions. […] Then, 200 μL each of the sample solutions was filtered with a filter Millex (registered trademark)-GV (trade name, manufactured by Nihon Millipore) with a pore size of 0.22 μm. The sample solutions before filtration and the sample solutions after filtration were respectively analyzed by reverse-phase HPLC. Peak area percentages were determined from the peak area values of Peptide 1 before and after filtration and used as elution rates. HPLC analytical conditions were the same as the conditions described in Example 1.
# (§4) Imidazole was dissolved in water to prepare 1 mM imidazole solution. pH was adjusted to 8, 8.5, and 9 by adding an appropriate amount of hydrochloric acid to this solution. Subsequently, Peptide 1 was added to these imidazole solutions to prepare 94 μM Peptide 1 solutions. […] Then, 200 μL each of the sample solutions was filtered with a filter Millex (registered trademark)-GV (trade name, manufactured by Nihon Millipore) with a pore size of 0.22 μm. The sample solutions before filtration and the sample solutions after filtration were respectively analyzed by reverse-phase HPLC. Peak area percentages were determined from the peak area values of Peptide 1 before and after filtration and used as elution rates. HPLC analytical conditions were the same as the conditions described in Example 1.
# (§5) Disodium hydrogen phosphate, sodium dihydrogen citrate, sodium ascorbate, and imidazole were separately dissolved in water to prepare their respective aqueous solutions with pH 9 at concentrations described in Table 4. pH adjustment was performed with hydrochloric acid and an aqueous solution of sodium hydroxide. The above-described aqueous solutions were separately added to the weighed Peptide 1 to prepare 94 μM Peptide 1 solutions. […] These Peptide 1 solutions were compared with the Peptide 1 sample solutions using the respective aqueous solutions of disodium hydrogen phosphate, sodium dihydrogen citrate, and sodium ascorbate used as comparative controls. Subsequently, 200 μL each of the sample solutions was filtered with a filter Millex (registered trademark)-GV (trade name, manufactured by Nihon Millipore) with a pore size of 0.22 μm. The sample solutions before filtration and the sample solutions after filtration were respectively analyzed by reverse-phase HPLC. […]
# [2] = Elution rate: reverse-phase HPLC peak area of the peptide after vs before 0.22 μm filtration
# Protocol: as §1, §2
# Column: Cosmosil 5C18-AR-300 (Manufactured by Nacalai Tesque, 4.6×150 mm)
# (§6) Detection: ultraviolet and visible spectrophotometer (detection wavelength: 220 nm)
# HPLC system: Alliance (manufactured by Waters, Japan)
# Eluant A: 0.1% trifluoroacetic acid (hereinafter, TFA)/purified water
# (§7) Eluant B: 0.1% TFA/acetonitrile
# (§8) Concentration gradient: 0 min (Eluant B 20%)→25 min (Eluant B 70%)
# as §3, §4
# as §5, with “controls.” for “controls. Subsequently, 200 μL each of the sample solutions was filtered with a filter Millex (registered trademark)-GV (trade name, manufactured by Nihon Millipore) with a pore size of 0.22 μm. The sample solutions before filtration and the sample solutions after filtration were respectively analyzed by reverse-phase HPLC.”
# [3] = Tc-99m labeling at room temperature, radiochemical purity by HPLC
# Protocol: (§9) Peptide 1 was dissolved in the aqueous solution of arginine with pH 10 obtained in Example 2 to prepare 9.4 μM peptide/arginine solution. 25 μL of a solution of 10 mL of 0.01 M hydrochloric acid supplemented with 5 mg of stannous chloride solution was added to 700 μL of the peptide/arginine solution, and 0.6 to 1.0 GBq of Tc-99m-sodium pertechnetate (hereinafter, 99 mTcO4^−) solution was quickly added thereto to adjust the total amount to 1 mL. After the labeling procedure, the peptide concentration was diluted to 6.6 μM. After shaking for several seconds, the solution was reacted at room temperature. A portion thereof was taken on 10 minutes and 90 minutes after the labeling procedure to determine each Tc-99m labeling rate by HPLC and TLC. The HPLC and TLC analyses were performed under conditions described below.
# (§10) For comparative controls, Peptide 1 was dissolved in dimethylsulfoxide (DMSO) and then diluted 10-fold with 100 mM phosphate buffer solution (hereinafter, PB) with pH 10 to prepare a peptide/DMSO/PB solution with the final peptide concentration of 9.4 μM. Alternatively, Peptide 1 was dissolved in PB to prepare a peptide/PB solution with the final peptide concentration of 9.4 μM. These solutions were labeled in the same way as in the peptide/arginine solution to determine each Tc-99m labeling rate by HPLC and TLC. After the labeling procedure, the peptide concentration was diluted to 6.6 μM.
# Column: Cosmosil 5C18-AR-300 (manufactured by Nacalai Tesque, 4.6×150 mm)
# as §6
# Radioactivity detector: STEFFI NaI scintillator (manufactured by Raytest)
# Eluant A: 0.1% TFA/purified water
# as §7, §8
# [4] = Tc-99m labeling at room temperature, radiochemical purity by TLC
# Protocol: as §9, §10
# Plate: Silica Gel 60F254 (manufactured by Merck)
# Developing solvent: 28% ammonia water/acetonitrile=½
# Radioactivity detector: Gita NaI scintillator (manufactured by Raytest)
# 12.5, 25, and 50 mg of arginine was weighed, then dissolved in water, and adjusted with hydrochloric acid to pH 10 to adjust each total amount to 700 μL. Molarities in these solutions are 102.5 mM, 205 mM, and 410 mM, respectively. Peptide 1 was dissolved in these aqueous solutions of arginine to prepare respective 9.4 μM peptide/arginine solutions. 25 μL of a solution of 10 mL of 0.01 M hydrochloric acid supplemented with 5 mg of stannous chloride solution was added to each of the peptide/arginine solutions, and 0.6 to 1.0 GBq of 99 mTcO4^− solution was quickly added thereto to adjust each total amount to 1 mL. After shaking for several seconds, the solutions were reacted at room temperature. A portion thereof was taken on 30 minutes, 90 minutes, 180 minutes, 360 minutes, 24 hours, and 30 hours after the labeling procedure to determine each radiochemical purity by TLC analysis under the conditions described in Example 5.
# [5] = 410 mM arginine solution, pH 11, peptide 94/99/161 μM
# [6] = solvent DMSO, peptide 94/99/161 μM
# [7] = solvent water, peptide 94 μM (Peptide 1), 99 μM (Peptide 2), 161 μM (Peptide 3)
# [8] = 1 mM imidazole, pH 8, 94 μM peptide
# [9] = 90 mM histidine, pH 9, 94 μM peptide
# [10] = 100 mM disodium hydrogen phosphate, pH 9, 94 μM peptide
# [11] = 410 mM arginine, pH 9, 94 μM peptide
# [12] = 489 mM lysine, pH 9, 94 μM peptide
# [13] = aqueous solutions of arginine, lysine and histidine at pH 9 or more
# [14] = Tc-99m labeling in DMSO/phosphate buffer solution pH 10, room temperature, 10 minutes
# [15] = Tc-99m labeling in DMSO/phosphate buffer solution pH 10, room temperature, 90 minutes
# [16] = Tc-99m labeling in phosphate buffer solution pH 10, room temperature, 10 minutes
substance,measurement,setting,value
formyl-Met-Leu-Phe-Lys-ε(-Gly-Asp-Ac—S-Bzl) (For-MLFKGD; not fully specified (C-terminus); printed as formyl-Met-Leu-Phe-Lys-ε(-Gly-Asp-Ac—S-Bzl); also: Gly-Asp attached through Lys epsilon-amino (branch)) [Peptide 3],Appearance,[1]; [5],"Colorless,"
same,Appearance,[1]; [6],"Colorless,"
same,Appearance,[1]; [7],Whitish
same,Elution rate,[2]; [5],101.3%
same,Elution rate,[2]; [6],108.5%
"formyl-Nle-Leu-Phe-Nle-Tyr-Lys(NH2)-ε(-Ser-D-Arg-Asp-Cys-Asp-Asp) (For-[Nle]LF[Nle]YKS[dR]DCDD; also: Lys(NH2): Lys α-carboxamide, Ser-D-Arg-Asp-Cys-Asp-Asp branch on Lys ε-amine) [Peptide 1]",Appearance,[1]; [8],colorless and transparent
same,Appearance,"[1]; 1 mM imidazole, pH 8.5, 94 μM peptide",colorless and transparent
same,Appearance,"[1]; 1 mM imidazole, pH 9, 94 μM peptide",colorless and transparent
same,Appearance,[1]; [9],"colorless, transparent"
same,Appearance,[1]; [10],"colorless, transparent"
same,Appearance,"[1]; 243 mM sodium dihydrogen citrate, pH 9, 94 μM peptide",white turbidity; also recorded: Whitish
same,Appearance,"[1]; 401 mM sodium ascorbate, pH 9, 94 μM peptide",white turbidity; also recorded: Whitish
same,Appearance,[1]; [5],"Colorless,"
same,Appearance,"[1]; 410 mM arginine, pH 8, 94 μM peptide",Evident white turbidity
same,Appearance,[1]; [11],"colorless, transparent"
same,Appearance,[1]; [12],"colorless, transparent"
same,Appearance,"[1]; aqueous solutions of arginine, lysine and histidine at pH 8.5 or less",Weak white turbidity
same,Appearance,[1]; [13],"colorless, transparent"
same,Appearance,[1]; [6],"Colorless,"
same,Appearance,[1]; [7],Whitish
same,Elution rate,[2]; [8],64.9%
same,Elution rate,[2]; [9],85.9%
same,Elution rate,"[2]; 90 mM histidine, pH 10, 94 μM peptide",90.7%
same,Elution rate,"[2]; 90 mM histidine, pH 11, 94 μM peptide",96.7%
same,Elution rate,[2]; [10],53.8%
same,Elution rate,[2]; [5],100.8%
same,Elution rate,"[2]; 410 mM arginine, pH 8.5, 94 μM peptide",43.8%
same,Elution rate,[2]; [11],93.8%
same,Elution rate,"[2]; 410 mM arginine, pH 9.5, 94 μM peptide",95.4%
same,Elution rate,"[2]; 410 mM arginine, pH 10, 94 μM peptide",98.8%
same,Elution rate,[2]; [12],89.0%
same,Elution rate,"[2]; 489 mM lysine, pH 10, 94 μM peptide",83.6%
same,Elution rate,"[2]; 489 mM lysine, pH 11, 94 μM peptide",85.9%
same,Elution rate,[2]; [13],≥ 85%
same,Elution rate,[2]; [6],98.6%
same,Radiochemical purity (HPLC),[3]; [14],72.0%
same,Radiochemical purity (HPLC),[3]; [15],75.4%
same,Radiochemical purity (HPLC),[3]; [16],55.3%
same,Radiochemical purity (TLC),"[4]; 102.5 mM arginine pH 10, 30 minutes after labeling",93.3%
same,Radiochemical purity (TLC),"[4]; 102.5 mM arginine pH 10, 90 minutes after labeling",92.6%
same,Radiochemical purity (TLC),"[4]; 102.5 mM arginine pH 10, 180 minutes after labeling",92.6%
same,Radiochemical purity (TLC),"[4]; 102.5 mM arginine pH 10, 360 minutes after labeling",91.2%
same,Radiochemical purity (TLC),"[4]; 102.5 mM arginine pH 10, 24 hours after labeling",88.9%
same,Radiochemical purity (TLC),"[4]; 102.5 mM arginine pH 10, 30 hours after labeling",89.8%
same,Radiochemical purity (TLC),"[4]; 205 mM arginine pH 10, 30 minutes after labeling",92.0%
same,Radiochemical purity (TLC),"[4]; 205 mM arginine pH 10, 90 minutes after labeling",90.8%
same,Radiochemical purity (TLC),"[4]; 205 mM arginine pH 10, 180 minutes after labeling",89.7%
same,Radiochemical purity (TLC),"[4]; 205 mM arginine pH 10, 360 minutes after labeling",89.7%
same,Radiochemical purity (TLC),"[4]; 205 mM arginine pH 10, 24 hours after labeling",88.3%
same,Radiochemical purity (TLC),"[4]; 205 mM arginine pH 10, 30 hours after labeling",87.3%
same,Radiochemical purity (TLC),"[4]; 410 mM arginine pH 10 (Example 6), 30 minutes after labeling",91.6%
same,Radiochemical purity (TLC),"[4]; 410 mM arginine pH 10 (Example 6), 90 minutes after labeling",89.5%
same,Radiochemical purity (TLC),"[4]; 410 mM arginine pH 10 (Example 6), 180 minutes after labeling",87.1%
same,Radiochemical purity (TLC),"[4]; 410 mM arginine pH 10 (Example 6), 360 minutes after labeling",85.7%
same,Radiochemical purity (TLC),"[4]; 410 mM arginine pH 10 (Example 6), 24 hours after labeling",86.5%
same,Radiochemical purity (TLC),"[4]; 410 mM arginine pH 10 (Example 6), 30 hours after labeling",84.9%
same,Radiochemical purity (TLC),[4]; [14],45.7%
same,Radiochemical purity (TLC),[4]; [15],41.9%
same,Radiochemical purity (TLC),[4]; [16],28.0%
same,Radiochemical purity (TLC),"[4]; Tc-99m labeling in phosphate buffer solution pH 10, room temperature, 90 minutes",33.6%
"formyl-Nle-Leu-Phe-Nle-Tyr-Lys(NH2)-ε(-Ser-D-Arg-DTPA*) (For-[Nle]LF[Nle]YKS[dR]; not fully specified (C-terminus); also: Lys(NH2): Lys α-carboxamide, Ser-D-Arg branch on Lys ε-amine, DTPA* at end of Ser-D-Arg branch) [Peptide 2]",Appearance,[1]; [5],"Colorless,"
same,Appearance,[1]; [6],"Colorless,"
same,Appearance,[1]; [7],Whitish
same,Elution rate,[2]; [5],102.8%
same,Elution rate,[2]; [6],100.9%
